Data set [1] addresses T1, Strep-HP1021 (orphan response regulator) (Helicobacter pylori 26695) (UniProt O25665).
T1 sequence: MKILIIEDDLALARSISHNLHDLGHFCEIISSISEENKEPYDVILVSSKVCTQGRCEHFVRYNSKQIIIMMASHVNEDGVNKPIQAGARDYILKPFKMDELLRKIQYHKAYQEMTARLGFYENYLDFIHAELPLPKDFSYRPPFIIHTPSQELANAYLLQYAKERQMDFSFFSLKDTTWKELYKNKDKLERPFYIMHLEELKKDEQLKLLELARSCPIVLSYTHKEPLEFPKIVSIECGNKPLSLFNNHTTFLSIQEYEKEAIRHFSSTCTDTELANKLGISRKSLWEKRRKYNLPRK
The data set can be described thus: competition. The conditions noted are these: EMSA: 50 mM Tris-Cl, 250 mM KCl, 5 mM DTT, pH 7.0, 100 ng/uL sheared salmon sperm DNA, 37 C 30 min, 20 uL, 4% native PAGE, footprinting: 37 C 30 min. In general terms: In EMSA bound probe runs differently from free probe, usually more slowly.

The target in data set [2] is T1, Strep-HP1021 (orphan response regulator) (Helicobacter pylori 26695). The data set can be described thus: EMSA. The conditions noted are these: EMSA: 50 mM Tris-Cl, 250 mM KCl, 5 mM DTT, pH 7.0, 100 ng/uL sheared salmon sperm DNA, 37 C 30 min, 20 uL, 4% native PAGE, footprinting: 37 C 30 min.

Experimental findings from PMC9010608 are described below.

For the sequence “CCATTATCACTCCAATTTTAATTCTCATTTTTTTGCGAGTTTTTGATCTTTATAAATTCTAAAGGGGTATTAAACGCACTTCTAATAACGATTTTATAGCGCTTCAAAGATATAACACTAATTCATTTTAAATAATAATTAGTTAATGAACGCTTCTGTTAATCTTAGTAAATCAAAACATTGCTACAATTACATCCAACCTTGATTTCGTTATGTCTTCAAGGAAAAACACTTTAAGAATAGGAGAATAAG (double strand) [PureA cold probe (unlabeled)]”, in data set [1], the binding result is “binds”.

With “CCATTATCACTCCAATTTTAATTCTCATTTTTTTGCGAGTTTTTGATCTTTATAAATTCTAAAGGGGTATTAAACGCACTTCTAATAACGATTTTATAGCGCTTCAAAGATATAACACTAATTCATTTTAAATAATAATTAGTTAATGAACGCTTCTGTTAATCTTAGTAAATCAAAACATTGCTACAATTACATCCAACCTTGATTTCGTTATGTCTTCAAGGAAAAACACTTTAAGAATAGGAGAATAAG (double strand) [PureA (ureAB promoter, AF700 probe)]”, the binding entry in data set [2] was “binds”.

In the case of “CCATTATCACTCCAATTTTAATTCTCATTTTTTTGCGAGTTTTTGATCTTTATAAATTCTAAAGGGGTATTAAACGCACTTCTAATAACGATTTTATAGCGCTTCAAAGATATAACACTAATTCATTTTAAATAATAATTAGTTAATGAACGCTTCCAGCCGGCTTCGTCAGTCGAAACATGTACGTGATTACATCCAACCTTGATTTCGTTATGTCTTCAAGGAAAAACACTTTAAGAATAGGAGAATAAG (double strand) [PureAmt (mutated ureAB promoter probe)]”, the binding result in data set [2] is given as “no binding”.
